Reference: US20190194356A1 (CHANGZHOU BOJIA BIOTECHNOLOGY, published 2019)

B1: monoclonal antibody 9M283 (antibody, human IgG2, lambda, V domains shown)
VH: QVQLVQSGAEVKKPGSSVKVSCKASAFTFDSFGMHWVRQAPGQGLEWMGLLWSDGSDEYYADSAKGRFTISRDNSKNTLYLQMNSLRSDDTAVYYCARALGAIYSYYAMDVWGQGTTVTVSS
VL: QSALTQPPSVSGSPGQSVTISCTGTSSNIGNQFVSWYQQLPGTAPKLMIYEYNKRPSGVPDRFSGSKSGNTASLTISGLQTGDEADYYCGSWDSSLSGYVFGTGTRVTVLG
notes: the claims call them variable regions; also called PCSK9 monoclonal antibody 9M283
B2: monoclonal antibody 9M284 (antibody, human IgG2, lambda)
heavy: QVQLVQSGAEVKKPGSSVKVSCKASAFTFDSFGMHWVRQAPGQGLEWMGLLWSDGSGEYYADSAKGRFTISRDNSKNTLYLQMNSLRSDDTAVYYCARAMGAIYYYYAMDVWGQGTTVTVSSASTKGPSVFPLAPCSRSTSESTAALGCLVKDYFPEPVTVSWNSGALTSGVHTFPAVLQSSGLYSLSSVVTVPSSNFGTQTYTCNVDHKPSNTKVDKTVERKCCVECPPCPAPPVAGPSVFLFPPKPKDTLMISRTPEVTCVVVDVSHEDPEVQFNWYVDGVEVHNAKTKPREEQFNSTFRVVSVLTVVHQDWLNGKEYKCKVSNKGLPAPIEKTISKTKGQPREPQVYTLPPSREEMTKNQVSLTCLVKGFYPSDIAVEWESNGQPENNYKTTPPMLDSDGSFFLYSKLTVDKSRWQQGNVFSCSVMHEALHNHYTQKSLSLSPG
light: QSALTQPPSVSGSPGQSVTISCTGTSSNIGNQFVSWYQQLPGTAPKLMIYEYNKRPSGVPDRFSGSKSGNTASLTISGLQTGDEADYYCGSWDSSLSGYVFGTGTRVTVLGQPKAAPSVTLFPPSSEELQANKATLVCLISDFYPGAVTVAWKADSSPVKAGVETTTPSKQSNNKYAASSYLSLTPEQWKSHRSYSCQVTHEGSTVEKTVAPTECS
notes: Fully human antibody from a phage library; the claims call 24 and 26 variable regions; also called PCSK9 monoclonal antibody 9M284
B3: monoclonal antibody 9M284QL (antibody)
heavy: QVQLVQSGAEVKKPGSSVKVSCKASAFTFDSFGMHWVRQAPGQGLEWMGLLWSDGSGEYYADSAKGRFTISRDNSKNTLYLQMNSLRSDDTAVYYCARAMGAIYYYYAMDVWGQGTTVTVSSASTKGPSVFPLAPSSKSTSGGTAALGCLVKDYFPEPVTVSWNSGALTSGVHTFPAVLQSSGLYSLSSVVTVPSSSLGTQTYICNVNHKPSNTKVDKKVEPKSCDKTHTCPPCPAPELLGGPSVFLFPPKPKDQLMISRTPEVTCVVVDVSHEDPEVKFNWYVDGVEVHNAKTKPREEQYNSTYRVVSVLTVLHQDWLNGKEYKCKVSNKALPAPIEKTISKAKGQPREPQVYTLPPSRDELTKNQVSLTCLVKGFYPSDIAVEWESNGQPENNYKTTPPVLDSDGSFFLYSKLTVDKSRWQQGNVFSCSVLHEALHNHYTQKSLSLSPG
light: B2 light
notes: also called long half-life PCSK9 monoclonal antibody 9M284-QL
B4: monoclonal antibody 9M284YTE (antibody)
heavy: QVQLVQSGAEVKKPGSSVKVSCKASAFTFDSFGMHWVRQAPGQGLEWMGLLWSDGSGEYYADSAKGRFTISRDNSKNTLYLQMNSLRSDDTAVYYCARAMGAIYYYYAMDVWGQGTTVTVSSASTKGPSVFPLAPSSKSTSGGTAALGCLVKDYFPEPVTVSWNSGALTSGVHTFPAVLQSSGLYSLSSVVTVPSSSLGTQTYICNVNHKPSNTKVDKKVEPKSCDKTHTCPPCPAPELLGGPSVFLFPPKPKDTLYITREPEVTCVVVDVSHEDPEVKFNWYVDGVEVHNAKTKPREEQYNSTYRVVSVLTVLHQDWLNGKEYKCKVSNKALPAPIEKTISKAKGQPREPQVYTLPPSRDELTKNQVSLTCLVKGFYPSDIAVEWESNGQPENNYKTTPPVLDSDGSFFLYSKLTVDKSRWQQGNVFSCSVMHEALHNHYTQKSLSLSPG
light: B2 light

Experiments:
[1] = target: T1, human PCSK9 antigen (GeneBank AX127530.1) (human, UniProt Q8NBP7 31-692); assay: cell-based or functional assay
T1 sequence (Q8NBP7 31-692 limits assumed): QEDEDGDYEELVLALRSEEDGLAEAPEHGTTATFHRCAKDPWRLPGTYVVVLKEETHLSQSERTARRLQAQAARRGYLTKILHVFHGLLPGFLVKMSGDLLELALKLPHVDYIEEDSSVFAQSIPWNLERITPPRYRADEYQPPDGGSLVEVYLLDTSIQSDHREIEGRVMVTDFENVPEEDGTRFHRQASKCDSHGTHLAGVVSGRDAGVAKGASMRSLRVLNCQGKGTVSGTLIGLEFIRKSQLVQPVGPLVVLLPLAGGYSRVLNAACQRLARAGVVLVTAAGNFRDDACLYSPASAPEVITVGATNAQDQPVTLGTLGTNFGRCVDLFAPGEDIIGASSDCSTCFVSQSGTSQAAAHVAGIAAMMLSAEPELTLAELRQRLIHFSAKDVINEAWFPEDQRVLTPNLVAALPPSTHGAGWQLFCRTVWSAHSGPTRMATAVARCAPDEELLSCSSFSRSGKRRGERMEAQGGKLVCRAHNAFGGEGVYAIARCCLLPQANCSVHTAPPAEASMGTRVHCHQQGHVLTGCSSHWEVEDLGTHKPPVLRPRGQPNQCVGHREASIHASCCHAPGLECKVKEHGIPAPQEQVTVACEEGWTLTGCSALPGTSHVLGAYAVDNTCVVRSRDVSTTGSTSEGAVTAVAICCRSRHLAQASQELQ

[2] = target: T1, human PCSK9 antigen (GeneBank …); assay: BLI (Octet Red 96), antibody on anti-human IgG Fc (AHC) biosensor, PCSK9 in solution, 1:1 model
Experimental: (§1) The ability of PCSK9 mAbs to bind to human, mouse or cynomolgus PCSK9 was characterized using the Octet Red 96 system (ForteBio). A kinetic-grade biosensor (Fortebio, #18-5063) of anti-human IgG Fc (AHC) was immersed in assay buffer after glycine pretreatment at pH 1.7. The PCSK9 monoclonal antibody to be detected was immobilized to the AHC biosensor at a concentration of 10 μg/ml for 120 seconds. The AHC biosensor loaded with the PCSK9 monoclonal antibody was then immersed in human PCSK9 antigen (GeneBank AX127530.1), mouse PCSK9 antigen (NCBI NM_153565.2) or cynomolgus PCSK9 antigen (NCBI NM_001112660.1) of different concentrations and buffer. The final dilution point of the analyte column only contained the detection buffer to test the non-specific binding between the buffer and the loaded biosensor. Antigen-antibody binding was detected from 80 to 120 s, and dissociation was detected from 120 to 180 s. A 60 second baseline was determined with the assay buffer. The affinity curves for anti-PCSK9 monoclonal antibodies were fitted using a 1:1 binding kinetic sensing monovalent binding model.

[3] = target: T2, mouse PCSK9 antigen (NCBI NM_153565.2) (mouse, UniProt Q80W65 35-694); assay: as above
T2 construct: also called msPCSK9
T2 sequence (Q80W65 35-694 limits assumed): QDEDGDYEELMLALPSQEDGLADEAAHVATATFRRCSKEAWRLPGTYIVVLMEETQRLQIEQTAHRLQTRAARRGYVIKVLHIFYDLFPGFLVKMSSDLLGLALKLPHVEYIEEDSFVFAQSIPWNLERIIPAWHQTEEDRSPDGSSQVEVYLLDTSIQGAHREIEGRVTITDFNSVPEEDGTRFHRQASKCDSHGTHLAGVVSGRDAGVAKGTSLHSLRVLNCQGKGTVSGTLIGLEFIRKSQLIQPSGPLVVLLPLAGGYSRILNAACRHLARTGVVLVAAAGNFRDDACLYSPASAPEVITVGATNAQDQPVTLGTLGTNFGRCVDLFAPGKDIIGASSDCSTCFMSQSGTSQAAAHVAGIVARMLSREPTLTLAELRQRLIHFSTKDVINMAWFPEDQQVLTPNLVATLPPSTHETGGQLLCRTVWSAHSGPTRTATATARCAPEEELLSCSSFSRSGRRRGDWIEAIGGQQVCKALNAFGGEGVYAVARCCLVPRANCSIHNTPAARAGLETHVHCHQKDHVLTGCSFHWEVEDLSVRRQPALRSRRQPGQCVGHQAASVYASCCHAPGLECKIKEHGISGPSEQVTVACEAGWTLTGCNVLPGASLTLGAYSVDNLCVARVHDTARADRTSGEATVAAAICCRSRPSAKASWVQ
Experimental: as §1

[4] = target: T1, human PCSK9 antigen (GeneBank …); assay: cell-based or functional assay; remark: listed apart in the source
[5] = target: human PCSK9 mutant protein D374H (human, UniProt Q8NBP7 31-692); assay: BLI (Octet Red 96), antibody on AHC biosensor, PCSK9 mutant in solution
human PCSK9 mutant protein D374H, sequence (Q8NBP7 31-692 D374H limits assumed): as the sequence (Q8NBP7 31-692 limits assumed) above, with D344H counted along it
Experimental: as §1
(§2) Human PCSK9 protein had different mutants. It was reported in the literature that there were many human PCSK9 mutants associated with hyperlipidemia. The inventors selected human PCSK9 mutant proteins of R218S, R306S, D374H, and D374Y among them, wherein the ability of PCSK9 mAbs of the invention in binding to different mutant PCSK9 proteins was characterized using the Octet Red 96 system (ForteBio) as described above. The kinetic analysis was shown in FIG. 7 and Table 9, except for R306S, the affinities of other human PCSK9 protein mutants to the PCSK9 monoclonal antibodies of the invention (normal IgG and long half-life IgG forms) were of the same order of magnitude as native human PCSK9 protein. Among them, the kon-binding ability of long half-life PCSK9 monoclonal antibody 9M284-QL to PCSK9 R218S protein was three times higher than that of 9M284 antibody.

[6] = target: T3, human PCSK9 mutant protein R218S (human, UniProt Q8NBP7 31-692); assay: as above
T3 construct: also called PCSK9 R218S protein
T3 sequence (Q8NBP7 31-692 R218S limits assumed): as the sequence (Q8NBP7 31-692 limits assumed) above, with R188S counted along it
Experimental: as §1, §2

[7] = target: human PCSK9 mutant protein R306S (human, UniProt Q8NBP7 31-692); assay: as above
human PCSK9 mutant protein R306S, sequence (Q8NBP7 31-692 R306S limits assumed): as the sequence (Q8NBP7 31-692 limits assumed) above, with R276S counted along it
Experimental: as §1, §2

[8] = target: human PCSK9 mutant protein D374Y (human, UniProt Q8NBP7 31-692); assay: as above
human PCSK9 mutant protein D374Y, sequence (Q8NBP7 31-692 D374Y limits assumed): as the sequence (Q8NBP7 31-692 limits assumed) above, with D344Y counted along it
Experimental: as §1, §2

[9] = target: T1, human PCSK9 antigen (GeneBank …); assay: BLI (Octet Red 96), antibody on AHC biosensor, human PCSK9 in solution, 1:1 model
Experimental: as §1
The specific experimental procedures were shown in Example 4 and Example 5. As shown in FIG. 5 and Table 7, the affinity of the long half-life antibody 9M284QL to human PCSK9 protein was substantially identical to 9M284 because the Fab region (containing VH and VL) of the engineered antibody 9M284QL was not changed compared to 9M284. As the affinity was not changed, the long half-life Fc-modified PCSK9 antibody 9M284QL, 9M284YTE and the conventional half-life antibody 9M284 had similar EC50 in the comparative test of cellular LDL uptake experiment, as shown in FIG. 6 and Table 8.

[10] = target: neonatal Fc receptor FcRn; assay: ELISA at pH 6.0, antibody coated at 10 µg/mL, His-tagged FcRn titrated, anti-His-Tag-HRP
neonatal Fc receptor FcRn, sequence (P55899 24-297, chain 1 of 2): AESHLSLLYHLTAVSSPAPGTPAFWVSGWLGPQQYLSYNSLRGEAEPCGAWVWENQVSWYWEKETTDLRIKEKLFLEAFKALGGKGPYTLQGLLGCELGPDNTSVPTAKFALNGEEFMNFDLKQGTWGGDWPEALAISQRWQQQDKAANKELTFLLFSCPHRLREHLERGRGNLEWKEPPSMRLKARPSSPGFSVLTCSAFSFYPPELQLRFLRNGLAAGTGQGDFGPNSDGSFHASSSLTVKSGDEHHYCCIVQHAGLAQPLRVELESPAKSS
neonatal Fc receptor FcRn, sequence (P61769 21-119, chain 2 of 2, further chain): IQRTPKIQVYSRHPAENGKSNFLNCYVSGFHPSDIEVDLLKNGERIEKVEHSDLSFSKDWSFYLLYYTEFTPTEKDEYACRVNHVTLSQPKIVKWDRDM
Experimental: (§3) The target antibody was diluted to 10 μg/mL with coating solution (15 mM Na₂CO₃, 35 mM NaHCO₃, pH 9.6), and then added to a 96-well ELISA plate at a dose of 100 μL/well and incubated at 4° C. overnight for coating. After coating, the sample wells were washed with PBST, pH 7.4 4 times, added with 300 μL/well of 4% skim milk (PBS, pH 7.4), and incubated at 25° C. for 2 hours for blocking. After blocking, the sample wells were washed 4 times with PBST, pH 7.4, added with 100 μL/well of FcRn diluted with 0.4% skim milk dissolved in PBST (pH 6.0/7.4, respectively) (initial concentration 20 μg/mL, 2-fold gradient dilution, with 11 concentration gradients in total), and incubated at 25° C. for 1.5 hours. After incubation, the sample wells were washed 4 times with PBST, pH 6.0/7.4, added with anti-His-Tag-HRP diluted in 0.4% skim milk (1/500) (pH 6.0/7.4, respectively), and incubated at 25° C. for 1 hour. After incubation, the sample wells were washed 4 times with PBST, pH 6.0/7.4, and added with 100 μL/well of TMB for development (development conditions: 25° C., 10 to 15 minutes). After development, 100 μL/well of 1 M […] was added to stop the development reaction, and the absorbance at 450 nm was read out (background correction was performed by the subtraction of the absorbance at 650 nm).

[11] = target: T3, human PCSK9 mutant protein R218S; assay: BLI (Octet Red 96); reference 9M284
Experimental: as §1
Human PCSK9 protein had different mutants. It was reported in the literature that there were many human PCSK9 mutants associated with hyperlipidemia. […]

[12] = target: neonatal Fc receptor FcRn; assay: ELISA at pH 6.0, antibody coated, His-tagged FcRn titrated; reference 9M284
Experimental: as §3

Binder	IC50, cellular LDL uptake assay (HepG2 cells, Dil-LDL, 20 µg/ml human PCSK9) [1]	Kd [2]	koff [2]	kon [2]	Kd [3]	koff [3]	kon [3]	EC50, cellular LDL uptake experiment [4]	Kd [5]	koff [5]	kon [5]	Kd [6]	koff [6]	kon [6]	Kd [7]	koff [7]	kon [7]	Kd [8]	koff [8]	EC50 [10]	further results
B1	6.12 nM	< 0.001 nM	< 1e-07 s⁻¹	399000 M⁻¹ s⁻¹	14 nM	0.0051 s⁻¹	350000 M⁻¹ s⁻¹														
B2	5.75 nM	< 0.001 nM	< 1e-07 s⁻¹	366000 M⁻¹ s⁻¹	3 nM	0.00094 s⁻¹	320000 M⁻¹ s⁻¹	4.52 µg/mL	< 0.001 nM	< 1e-07 s⁻¹	24900 M⁻¹ s⁻¹	< 0.001 nM	< 1e-07 s⁻¹	11400 M⁻¹ s⁻¹	2.4 nM	8.14e-05 s⁻¹	33900 M⁻¹ s⁻¹	< 0.001 nM	< 1e-07 s⁻¹	71.9 µg/mL	kon [8]: 21800 M⁻¹ s⁻¹; Kd [9]: < 0.001 nM; koff [9]: < 1e-07 s⁻¹; kon [9]: 56000 M⁻¹ s⁻¹
B3								5.28 µg/mL	< 0.001 nM	< 1e-07 s⁻¹	26900 M⁻¹ s⁻¹	< 0.001 nM	< 1e-07 s⁻¹	36500 M⁻¹ s⁻¹	1.46 nM	4.64e-05 s⁻¹	31800 M⁻¹ s⁻¹	< 0.001 nM	< 1e-07 s⁻¹	25 µg/mL	fold higher kon than 9M284 [11]: 3 fold; fold smaller EC50 than 9M284 [12]: 2.8 fold; kon [8]: 29700 M⁻¹ s⁻¹; Kd [9]: < 0.001 nM; koff [9]: < 1e-07 s⁻¹; kon [9]: 58500 M⁻¹ s⁻¹
B4								4.36 µg/mL												24.3 µg/mL	fold smaller EC50 than 9M284 [12]: 2.8 fold
